± gives the standard deviation of the averaged measurements.
B1: library; a variant is named by its letters at X, in order (parent)
chain: MNIQIGELAKRTACPVVTIRFYEQEGLLPPPGRSRGNFRLYGEEHVERLQFIRHCRSLDMPLSXVRTLLSYRKRPDQDCGEVXMLLDEHXRQVESRIGALLELXHXLVELREACSGARPAQSCGILQGLSDCVCDTRGTTAHXSD

Variants of: B1
Test: sfGFP reporter fluorescence (15 h) (µM FITC); higher = higher leak
Conditions: library round: Round 3b; ligand: none
Description: (§1)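 Cell-free biosensing: 1 µL Echo-assembled CFE reactions with linear PbrR variant templates (5 nM) and pPbrR-sfGFP reporter, with 1 µM Pb, 30 µM Zn or no ligand; endpoint sfGFP fluorescence after 15 h at 30 °C calibrated as µM FITC. Round 3b rational combinatorial PbrR mutants; 3 biological replicates.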

Row | Variant | sfGFP reporter fluorescence
1 | KIIVAT | 0.0506 ± 0.0022
2 | DNATER | 0.0446 ± 0.0017
3 | DNATET | 0.0419 ± 0.00051
4 | DFITET | 0.0393 ± 0.0042
5 | DFITER | 0.0424 ± 0.0031
6 | KIAKHT | 0.0693 ± 0.0034
7 | KIAKHR | 0.072 ± 0.002
8 | KIAKAP | 0.0576 ± 0.0074
9 | KIAKAT | 0.0563 ± 0.006
10 | KIAKAR | 0.0603 ± 0.0029
11 | KFATER | 0.0457 ± 0.0041
12 | KFATET | 0.0469 ± 0.0028
13 | KFATEP | 0.0465 ± 0.0032
14 | KIAVAR | 0.0586 ± 0.0045
15 | KIAVAT | 0.0607 ± 0.0022
16 | KIAVAP | 0.0556 ± 0.001
17 | KIATEP | 0.0672 ± 0.0044
18 | KIATER | 0.06373 ± 0.00019
19 | KIATET | 0.0659 ± 0.0015
20 | DFIVET | 0.0435 ± 0.0054
21 | DFIVER | 0.0476 ± 0.0017
22 | KFAVAR | 0.0482 ± 0.0037

Row | Variant | sfGFP reporter fluorescence
23 | KFAVAT | 0.0465 ± 0.0014
24 | KNATAT | 0.0532 ± 0.0029
25 | KNATAR | 0.0517 ± 0.005
26 | KNATAP | 0.052 ± 0.0055
27 | KFAKET | 0.0549 ± 0.0049
28 | KFAKER | 0.0536 ± 0.0034
29 | KFAKEP | 0.0525 ± 0.0023
30 | KNAVHR | 0.0557 ± 0.0039
31 | KNAVHT | 0.0573 ± 0.0042
32 | DFAVHT | 0.0401 ± 0.0051
33 | DFAVHR | 0.0438 ± 0.0023
34 | KFITAP | 0.0485 ± 0.0052
35 | KFITAT | 0.0473 ± 0.0032
36 | KFITAR | 0.0479 ± 0.003
37 | KFATAT | 0.0465 ± 0.0042
38 | KFATAP | 0.0501 ± 0.0052
39 | KFATAR | 0.0492 ± 0.0024
40 | KNAVEP | 0.0529 ± 0.0031
41 | KNAVET | 0.0522 ± 0.0014
42 | KNAVER | 0.0532 ± 0.0015
43 | KNAKER | 0.0626 ± 0.0049
44 | KNAKET | 0.0595 ± 0.0029

Variants of: B1
Test: sfGFP reporter fluorescence (15 h) (µM FITC); higher = stronger transcriptional activation
Conditions: library round: Round 3b; ligand: 1 µM Pb
Description: as §1

Row | Variant | sfGFP reporter fluorescence
45 | KIIVAT | 0.424 ± 0.013
46 | DNATER | 0.0458 ± 0.0017
47 | DNATET | 0.0463 ± 0.0026
48 | DFITET | 0.0493 ± 0.0022
49 | DFITER | 0.0522 ± 0.0026
50 | KIAKHT | 0.93 ± 0.043
51 | KIAKHR | 1.07 ± 0.074
52 | KIAKAP | 0.674 ± 0.062
53 | KIAKAT | 0.675 ± 0.061
54 | KIAKAR | 0.794 ± 0.049
55 | KFATER | 0.594 ± 0.024
56 | KFATET | 0.404 ± 0.017
57 | KFATEP | 0.442 ± 0.0057
58 | KIAVAR | 1.08 ± 0.06
59 | KIAVAT | 1.25 ± 0.024
60 | KIAVAP | 0.772 ± 0.15
61 | KIATEP | 1 ± 0.062
62 | KIATER | 1.25 ± 0.078
63 | KIATET | 1.15 ± 0.065
64 | DFIVET | 0.0785 ± 0.0019
65 | DFIVER | 0.0836 ± 0.0022
66 | KFAVAR | 0.398 ± 0.028

Row | Variant | sfGFP reporter fluorescence
67 | KFAVAT | 0.356 ± 0.02
68 | KNATAT | 0.305 ± 0.021
69 | KNATAR | 0.302 ± 0.012
70 | KNATAP | 0.226 ± 0.015
71 | KFAKET | 0.413 ± 0.019
72 | KFAKER | 0.438 ± 0.026
73 | KFAKEP | 0.414 ± 0.015
74 | KNAVHR | 0.37 ± 0.021
75 | KNAVHT | 0.322 ± 0.0077
76 | DFAVHT | 0.0539 ± 0.001
77 | DFAVHR | 0.059 ± 0.0031
78 | KFITAP | 0.302 ± 0.022
79 | KFITAT | 0.335 ± 0.012
80 | KFITAR | 0.394 ± 0.028
81 | KFATAT | 0.455 ± 0.007
82 | KFATAP | 0.3845 ± 0.0014
83 | KFATAR | 0.462 ± 0.068
84 | KNAVEP | 0.235 ± 0.021
85 | KNAVET | 0.261 ± 0.01
86 | KNAVER | 0.334 ± 0.025
87 | KNAKER | 0.296 ± 0.036
88 | KNAKET | 0.248 ± 0.0068

Same assay, conditions: library round: Round 3b; ligand: 30 µM Zn

Row | Variant | sfGFP reporter fluorescence
89 | KIIVAT | 0.0534 ± 0.0041
90 | DNATER | 0.0522 ± 0.0022
91 | DNATET | 0.0623 ± 0.0031
92 | DFITET | 0.0433 ± 0.0032
93 | DFITER | 0.0451 ± 0.0034
94 | KIAKHT | 0.152 ± 0.011
95 | KIAKHR | 0.135 ± 0.017
96 | KIAKAP | 0.0578 ± 0.0037
97 | KIAKAT | 0.0628 ± 0.0018
98 | KIAKAR | 0.0642 ± 0.0027
99 | KFATER | 0.0571 ± 0.014
100 | KFATET | 0.0606 ± 0.0013
101 | KFATEP | 0.0564 ± 0.0029
102 | KIAVAR | 0.0523 ± 0.0046
103 | KIAVAT | 0.0576 ± 0.0032
104 | KIAVAP | 0.0487 ± 0.0065
105 | KIATEP | 0.0643 ± 0.0007
106 | KIATER | 0.0603 ± 0.0035
107 | KIATET | 0.0663 ± 0.0026
108 | DFIVET | 0.0449 ± 0.0017
109 | DFIVER | 0.0461 ± 0.001
110 | KFAVAR | 0.0563 ± 0.00097

Row | Variant | sfGFP reporter fluorescence
111 | KFAVAT | 0.057 ± 0.0017
112 | KNATAT | 0.514 ± 0.057
113 | KNATAR | 0.406 ± 0.066
114 | KNATAP | 0.311 ± 0.038
115 | KFAKET | 0.0675 ± 0.0044
116 | KFAKER | 0.0631 ± 0.0086
117 | KFAKEP | 0.0724 ± 0.0068
118 | KNAVHR | 0.644 ± 0.054
119 | KNAVHT | 0.602 ± 0.057
120 | DFAVHT | 0.0473 ± 0.0027
121 | DFAVHR | 0.0519 ± 0.0031
122 | KFITAP | 0.0642 ± 0.0032
123 | KFITAT | 0.0678 ± 0.0076
124 | KFITAR | 0.0776 ± 0.0024
125 | KFATAT | 0.056 ± 0.0037
126 | KFATAP | 0.0524 ± 0.00067
127 | KFATAR | 0.0554 ± 0.0012
128 | KNAVEP | 0.211 ± 0.024
129 | KNAVET | 0.223 ± 0.016
130 | KNAVER | 0.313 ± 0.04
131 | KNAKER | 0.621 ± 0.066
132 | KNAKET | 0.569 ± 0.068

— the supplement of paper PMC12783771
